The labels stand for the following.
T1: TNFR2 on Kym-1 cells (UniProt P20333 23-461, limits assumed)
T1 sequence (looked up): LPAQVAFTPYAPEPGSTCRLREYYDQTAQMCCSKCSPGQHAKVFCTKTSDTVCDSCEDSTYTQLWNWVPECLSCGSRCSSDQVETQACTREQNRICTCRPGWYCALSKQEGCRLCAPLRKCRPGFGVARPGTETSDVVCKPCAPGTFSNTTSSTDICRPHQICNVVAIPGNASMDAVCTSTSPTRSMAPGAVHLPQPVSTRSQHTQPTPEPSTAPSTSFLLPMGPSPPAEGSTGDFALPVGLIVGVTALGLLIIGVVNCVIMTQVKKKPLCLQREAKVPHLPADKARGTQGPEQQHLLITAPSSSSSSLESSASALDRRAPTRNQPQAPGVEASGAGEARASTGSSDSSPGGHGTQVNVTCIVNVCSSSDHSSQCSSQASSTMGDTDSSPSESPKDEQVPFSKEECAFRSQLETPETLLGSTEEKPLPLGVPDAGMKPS

T2: human TNFR2-Fc (etanercept) (human, UniProt P20333 23-257)
T2 construct: Commercial drug coated on ELISA plates (200 ng/well); also called immobilized TNF-R2; not shown: Fc part of etanercept
T2 sequence (looked up): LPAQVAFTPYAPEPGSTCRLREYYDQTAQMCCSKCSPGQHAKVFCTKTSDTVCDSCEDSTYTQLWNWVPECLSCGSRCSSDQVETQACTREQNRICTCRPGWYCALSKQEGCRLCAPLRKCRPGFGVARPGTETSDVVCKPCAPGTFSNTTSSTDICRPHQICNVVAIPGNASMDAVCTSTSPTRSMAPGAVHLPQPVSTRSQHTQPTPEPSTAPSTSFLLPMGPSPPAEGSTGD

B1: 6xHis-scTNFR2 146 (ligand)
chain: MCGSHHHHHHSGIPASDKPVAHVVANPQAEGQLQWLNRRANALLANGVELRDNQLVVPSEGLYLIYSQVLFKGQGCPSTHVLLTHTISRIAVSYQTKVNLLSAIKSPCQRETPEGAEAKPWYEPIYLGGVFQLEKGDRLSAEINRPDYLNFRESGQVYFGIIALGGGTPSDKPVAHVVANPQAEGQLQWLNRRANALLANGVELRDNQLVVPSEGLYLIYSQVLFKGQGCPSTHVLLTHTISRIAVSYQTKVNLLSAIKSPCQRETPEGAEAKPWYEPIYLGGVFQLEKGDRLSAEINRPDYLNFRESGQVYFGIIALGGGTPSDKPVAHVVANPQAEGQLQWLNRRANALLANGVELRDNQLVVPSEGLYLIYSQVLFKGQGCPSTHVLLTHTISRIAVSYQTKVNLLSAIKSPCQRETPEGAEAKPWYEPIYLGGVFQLEKGDRLSAEINRPDYLNFRESGQVYFGIIAL
notes: Expressed with Igκ leader and N-terminal 6xHis tag; also called variant 146
B2: 6xHis-scTNFR2 147 (ligand)
chain: B1 chain with T168G, T322G
notes: Expressed with Igκ leader and N-terminal 6xHis tag; also called variant 147
B3: 6xHis-scTNFR2 143 (ligand)
chain: MCGSHHHHHHSGIPASDKPVAHVVANPQAEGQLQWLNRRANALLANGVELRDNQLVVPSEGLYLIYSQVLFKGQGCPSTHVLLTHTISRIAVSYQTKVNLLSAIKSPCQRETPEGAEAKPWYEPIYLGGVFQLEKGDRLSAEINRPDYLNFRESGQVYFGIIALGGGPSDKPVAHVVANPQAEGQLQWLNRRANALLANGVELRDNQLVVPSEGLYLIYSQVLFKGQGCPSTHVLLTHTISRIAVSYQTKVNLLSAIKSPCQRETPEGAEAKPWYEPIYLGGVFQLEKGDRLSAEINRPDYLNFRESGQVYFGIIALGGGPSDKPVAHVVANPQAEGQLQWLNRRANALLANGVELRDNQLVVPSEGLYLIYSQVLFKGQGCPSTHVLLTHTISRIAVSYQTKVNLLSAIKSPCQRETPEGAEAKPWYEPIYLGGVFQLEKGDRLSAEINRPDYLNFRESGQVYFGIIAL
notes: Expressed with Igκ leader and N-terminal 6xHis tag; also called variant 143

A word on the EC50: it is the midpoint of the concentration-response curve.

Numbering of substitutions follows the chain as printed.

In one assay the target is T1, TNFR2 on Kym-1 cells. Kind of assay: cell-based or functional assay.
As to B1, the “EC50 of bioactivity on Kym-1 with 80M2 (cell death, crystal violet)” value (from here on “EC50 of bioactivity on Kym-1 with 80M2”) came out at 6.55 pM.

As for B2, the “EC50 of bioactivity on Kym-1 with 80M2” value amounted to 8.58 pM.

For B3, the “EC50 of bioactivity on Kym-1 with 80M2” value turned out to be 11.9 pM.

In the next assay the target is T2, human TNFR2-Fc (etanercept). The assay can be described thus: ELISA on coated etanercept. As for the experimental part:
The binding of scTNFR2 and the scTNFR2-Fc(Δab) proteins to human TNFR2-Fc (etanercept) was analyzed by ELISA. 96-well ELISA plates were coated with 200 ng/well etanercept in coating buffer (0.1 M sodium carbonate, pH 9.5) overnight at 4° C., blocked with 2% skim milk in PBS (MPBS) and washed with washing buffer PBST (PBS, 0.05 Tween 20). ScTNFR2 and scTNFR2-Fc(Δab) proteins were titrated in duplicates and incubated on the plates for 2 h at room temperature, followed by washing with PBST. Receptor-bound complexes were detected with mouse anti-huTNFα F6C5 (Novus, 1 μg/ml) and goat anti-mouse IgG(Fc)-HRP (Sigma-Aldrich, 1:10,000), followed by extensive washing with PBST each, before incubation with HRP substrate.
The molecule B1 registered a concentration giving a half-maximal response (EC50) of 0.71 nM.

As to B2, the response was half-maximal at 0.76 nM (EC50).

As to B3, the concentration giving a half-maximal response (EC50) is 0.67 nM. The EC50 values of the last two molecules are within 1.5-fold of each other.

The values above are taken from US20220267410A1 (UNIVERSITAT STUTTGART, published 2022).
